Assay results as given in patent publication US20140199682A1.

Experiments:
[1] = target: hemagglutinin of H3N2 Hong Kong/68 (influenza A virus H3N2); test: Biolayer Interferometry (ForteBio Octet), kinetic analysis, apparent affinity
[2] = target: hemagglutinin H3 A/Perth/16/2009 (influenza A virus H3); test: as above

Row | Substance | Kd [1] [nM] | Kd [2] [nM]
1 | C05 CDR1 variant E27d-A (antibody) | 540 | 28
2 | C05 CDR1 variant F27b-A (antibody) | 610 | 460
3 | C05 CDR1 variant G27c-A (antibody) | 450 | 33
4 | C05 CDR1 variant Y31A (antibody) | 640 | 550
5 | C05 CDR1 variant Y31F (antibody) | 420 | 6.8
6 | C05 CDR1 variant Y31L (antibody) | 1400 | 560
7 | C05 CDR1 variant del(FGEST) (antibody) | 690 | 1300
